Data on four molecules can be found in publication PMC8254751 (Molecular cancer research : MCR, 2021).

To fix the notation:
B2: His-BAP1-ULD (601–729aa) (domain or fragment, human, UniProt Q92560 601-729, looked up)
chain: KEVVEATDSREKTGMVRPGEPLSGEKYSPKELLALLKCVEAEIANYEACLKEEVEKRKKFKIDDQRRTHNYDEFICTFISMLAQEGMLANLVEQNISVRRRQGVSIGRLHKQRKPDRRKRSRPYKAKRQ
B3: His-ASXL2-AB (261–381aa) (domain or fragment, human, UniProt Q76L83 261-381, looked up)
chain: MKRTKCADIDVETPDSILVNTNLRALINKHTFSVLPGDCQQRLLLLLPEVDRQVGPDGLMKLNGSALNNEFFTSAAQGWKERLSEGEFTPEMQVRIRQEIEKEKKVEPWKEQFFESYYGQS
B4: His-ULD/AB protein complex (pETDuet-1-His-BAP1-ULD+ASXL2-AB) (complex, human)
chain 1: KEVVEATDSREKTGMVRPGEPLSGEKYSPKELLALLKCVEAEIANYEACLKEEVEKRKKFKIDDQRRTHNYDEFICTFISMLAQEGMLANLVEQNISVRRRQGVSIGRLHKQRKPDRRKRSRPYKAKRQ
chain 2: MKRTKCADIDVETPDSILVNTNLRALINKHTFSVLPGDCQQRLLLLLPEVDRQVGPDGLMKLNGSALNNEFFTSAAQGWKERLSEGEFTPEMQVRIRQEIEKEKKVEPWKEQFFESYYGQS

The target in test [1] is B4. Nature of the test: SPR.
The test “His-ASXL2-AB (261–381aa)” deals with B3. Nature of the test: ITC.
A further test has as its target T1, GST-BAP1-ULD (human, UniProt Q92560 601-729).
T1 sequence (looked up): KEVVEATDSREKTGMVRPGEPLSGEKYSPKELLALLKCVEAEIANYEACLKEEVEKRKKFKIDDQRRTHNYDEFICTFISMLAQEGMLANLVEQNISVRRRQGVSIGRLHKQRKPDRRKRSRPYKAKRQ
Nature of the test: SPR.

The test “His-BAP1-ULD (601–729aa)” deals with B2. In words: ITC.
The target in test [2] is T2, Full-length His-BAP1 (Bv-His-BAP1-FL-WT) (human, UniProt Q92560 1-729).
T2 sequence (looked up): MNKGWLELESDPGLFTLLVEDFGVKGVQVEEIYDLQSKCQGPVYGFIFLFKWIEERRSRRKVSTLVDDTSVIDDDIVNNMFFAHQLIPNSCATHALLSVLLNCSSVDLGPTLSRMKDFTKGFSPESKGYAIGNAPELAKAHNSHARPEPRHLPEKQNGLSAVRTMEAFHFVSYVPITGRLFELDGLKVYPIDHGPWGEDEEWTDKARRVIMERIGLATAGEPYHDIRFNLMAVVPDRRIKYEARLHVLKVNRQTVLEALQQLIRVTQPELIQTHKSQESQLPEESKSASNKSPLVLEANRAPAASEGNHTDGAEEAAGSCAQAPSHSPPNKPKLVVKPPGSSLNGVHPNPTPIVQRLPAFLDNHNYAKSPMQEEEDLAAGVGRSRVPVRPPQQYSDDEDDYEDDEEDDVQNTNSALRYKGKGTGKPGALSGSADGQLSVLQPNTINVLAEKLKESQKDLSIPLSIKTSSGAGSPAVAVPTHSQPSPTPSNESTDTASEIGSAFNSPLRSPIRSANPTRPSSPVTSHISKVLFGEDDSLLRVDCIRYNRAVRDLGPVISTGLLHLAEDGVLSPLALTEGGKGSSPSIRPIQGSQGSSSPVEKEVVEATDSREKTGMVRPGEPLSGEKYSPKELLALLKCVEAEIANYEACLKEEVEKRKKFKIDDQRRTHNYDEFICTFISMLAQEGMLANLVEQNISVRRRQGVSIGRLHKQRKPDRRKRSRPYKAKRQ
In words: SPR.

Values joined by “and” are separate entries in the source; they are usually repeats but may differ in a detail not shown here. Identical values can stand only once.

B1: GST-BAP1-UCH-WT (1–250 aa) (domain or fragment, human, UniProt Q92560 1-250, looked up)
chain: MNKGWLELESDPGLFTLLVEDFGVKGVQVEEIYDLQSKCQGPVYGFIFLFKWIEERRSRRKVSTLVDDTSVIDDDIVNNMFFAHQLIPNSCATHALLSVLLNCSSVDLGPTLSRMKDFTKGFSPESKGYAIGNAPELAKAHNSHARPEPRHLPEKQNGLSAVRTMEAFHFVSYVPITGRLFELDGLKVYPIDHGPWGEDEEWTDKARRVIMERIGLATAGEPYHDIRFNLMAVVPDRRIKYEARLHVLKV
Consider B1, for which the koff in test [1] was found to be 0.044 s⁻¹.
The molecule B2 showed a dH with His-ASXL2-AB (261–381aa) of -9.87 kcal/mol.
On to B3, for which the Kd was 134 nM and 67 nM with GST-BAP1-ULD; about 4260 nM in the test with His-BAP1-ULD (601–729aa).
Turning to B4, in test [2], the Kd is 850 nM and 1910 nM; the koff turned out to be 0.033 s⁻¹.
